This note sets out measurements from the supplement of paper PMC9170038.

In this data set the test system is MS2 coat protein. Put plainly: apparent KD of MS2 coat protein; designed switch direction (-1 OFF switch, 1 ON switch): -1; higher = weaker reporter binding. Summed up: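 The buffer was Tris-HCl pH 7.5 with KCl, MgCl2, BSA, DTT, tRNA and Tween-20. In it, SNAP-549-labelled MS2 coat protein was titrated in doubling steps from 0.7 or 1.5 nM to 3 µM over chip-bound RNA switches transcribed by stalled E. coli RNA polymerase on Illumina chips. Apparent KD is the per-design median over clusters of curve fits to normalised fluorescence.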

Where [1] appears, read: Eterna round: R95, input ligand: FMN 200 uM.
Setting [2] is: Eterna round: R95, input ligand: microRNA oligo, concentration not stated.
The mark [3] stands for this setting: Eterna round: R95, input ligand: none.
[4] abbreviates: input ligand: microRNA oligo, concentration not stated.

In the case of “CUCCUCAUGACGCCUAAACACAUGAGGAUCACCCAUGUACAGGCUUUUUGUCGUCUUAUAAUAAAACCGAGGAUACG [Orlaorusti] (puzzle: Sensor v3, turn-off variant 1)”, the “apparent KD of MS2 coat protein” value under setting [1] turned out to be 20.2 nM, the “apparent KD of MS2 coat protein” value under setting [2] was determined as 116 nM and the “apparent KD of MS2 coat protein” value under setting [3] worked out at 23.2 nM.
In the case of “CUCGUGCAGCAAAGCUGUACGAGUACAUGAGGAUCACCCAUGUAGGAUAUGGUACGCAAAGCGUGCCAGAAGGACGUGCGUUAG [Mat - Exclusion NG 3 - Mod of JL - D94] (Eterna round: R96, puzzle: Exclusion NG 3)”, the “apparent KD of MS2 coat protein” value stood at 92.5 nM (input ligand: FMN 200 uM), 19.5 nM under setting [4] and 49.7 nM (input ligand: none).
For the sequence “CUCUAGUCAGGAUAUUAGUUGCCACCUGGACACAGGCGGCAUGAGAAGGGACUUGAGGAUCACCCAAGUAAAAG [Quaesbe] (Eterna round: R97, puzzle: Exclusion 4)”, the “apparent KD of MS2 coat protein” value is, setting by setting: (input ligand: FMN 200 uM) 384 nM; (input ligand: none) 758 nM.
For “CUCUCGCGAGGAUAUGAUUUAAGUAACAUGAGGAUCACCCAUGUUUUUCCGUUGUUAUGUUCAGAAGGCGCGUGAU [JR_E5_Sub022] (puzzle: Exclusion 5)”, under setting [2], the “apparent KD of MS2 coat protein” value is 38.8 nM.
For the sequence “CUGAACCCGGUAGGAUAUAUUGUGGGCAAGCAUGGAACAACAUGAGGAUCACCCAUGUAAUUUAGGUAGAAGGGCCAAAAGAUU [Excl-NG2-LRO08] (Eterna round: R96, puzzle: Exclusion NG 2)”, the “apparent KD of MS2 coat protein” value amounted to 56.8 nM (input ligand: FMN 200 uM), 52.7 nM under setting [4] and 55.3 nM (input ligand: none).
Regarding “CUGAGCUGACGGAGAUCCAACAUGAGGAUCACCCAUGUCUCAAAAGCUUUUUGCUCGUCUUAUCCUCCUCAGUUCAC [Mat - Sensor, turn-off var - Eli Mod - D55] (Eterna round: R97, puzzle: Sensor, turn-off variant 1)”, the “apparent KD of MS2 coat protein” value was 26.5 nM (input ligand: FMN 200 uM) and 22.6 nM (input ligand: none).
On the same counts, the results for “CUGAGCUGAGGAUAUACAUGAGGAUCACCCAUGUUAAGCAGCUUGCGUAAAAGCAGAUGUAGAAGGCAGUUCGG [Mod of JL 18 - Jieux - Exclusion 3] (Eterna round: R97, puzzle: Exclusion 3)” are 18.1 nM and 13.7 nM.
Consider “CUGAGGUAGCGGUCCUAUGACAUGAGGAUCACCCAUGUACCUUGCUACGAGCUUUUUGCUCGUCUUAUAAUUCUCGG [JL Atriat mod 3] (puzzle: Sensor v3, turn-off variant 1)”, for which the “apparent KD of MS2 coat protein” value under setting [1] came out at 466 nM, the “apparent KD of MS2 coat protein” value under setting [2] is 91.5 nM and the “apparent KD of MS2 coat protein” value under setting [3] was 526 nM.
For “CUGAGGUAGCGGUCCUAUUACAUGAGGAUCACCCAUGUACCUUGCUUCGAGCUUUUAGCUCGUCUUAUGAUUCUCGG [Mat - Sensor v3 - turn-off var 1 - JL Mod - D38] (puzzle: Sensor v3, turn-off variant 1)”, in that order: 277 nM, 447 nM and 381 nM.
On to “CUGAGUAGUCAGGAUAUGCUGUACAAAAGUACAGCAGAAGGGAUUACAUGAGGAUCACCCAUGUGUACUUCAUG [)mei Ex6 B20] (Eterna round: R97, puzzle: Exclusion 6)”, for which the “apparent KD of MS2 coat protein” value by setting is: (input ligand: FMN 200 uM) 401 nM; (input ligand: none) 184 nM.
For “CUGAUGUGAGGAUAUCUACGCCAAGUGUUUCACUUGGCGCAAGAGAAGGCACAUGAGGAUCACCCAUGUACUUC [jl-ex4-4.37 ViennaUCT mod] (Eterna round: R97, puzzle: Exclusion 4)”, in that order: 137 nM and 22.8 nM.
For “CUGCUCCGUGUAGGAUAUCCGUGCAACCAAUACGGAGAAGGACAUGAGGAUCACCCAUGUAUGUUAUUAUCACGUGAAGCGUCC [Design 24] (Eterna round: R96, puzzle: Exclusion NG 1)”, the “apparent KD of MS2 coat protein” value (input ligand: FMN 200 uM) amounted to 23.1 nM, the “apparent KD of MS2 coat protein” value under setting [4] came to 17 nM and the “apparent KD of MS2 coat protein” value (input ligand: none) was found to be 24.3 nM.
For “CUGCUCCGUGUAGGAUAUGCAUACUCCCAUUAUGCAGAAGGACAUGAGGAUCACCCAUGUAUGUUAUUAUCAUGUGUUGCAUGC [Design 11] (Eterna round: R96, puzzle: Exclusion NG 1)”, in that order: 164 nM, 33.9 nM and 37.3 nM.
As to “CUGCUCCGUGUAGGAUAUGCAUAUUCCCAUUAUGCAGAAGGACAUGAGGAUCACCCAUGUAUGUUAUUAUCAUGUGUUACAUGC [Design 9] (Eterna round: R96, puzzle: Exclusion NG 1)”, the “apparent KD of MS2 coat protein” value reads like this: (input ligand: FMN 200 uM) 203 nM; under setting [4], 24.9 nM; (input ligand: none) 33.2 nM.
For “CUGCUGGAGCGUCGCUUUGGUCGUACAUGAGGAUCACCCAUGUAGGAUAUGGUAAAAUUCGCCUGCUAGAAGGAUAGAGUGGUC [salish99_ExNG3_r04_618] (Eterna round: R96, puzzle: Exclusion NG 3)”, in that order: 142 nM, 93.6 nM and 78.9 nM.
On the same counts, the results for “CUGGACCCGGUAGGAUAUAUUGUGGGCGGGCGUGGAACGACAUGAGGAUCACCCAUGUGAUUGAGGUAGAAGGGCCGAGAGGUU [Excl-NG2-LRO18] (Eterna round: R96, puzzle: Exclusion NG 2)” are 52.7 nM, 33.8 nM and 61.8 nM.
In the case of “CUGGUCCGAGGAUAUAUUAUGUGAUACAUGAGGAUCACCCAUGUUAUAUGAUGGAUAUAAAUAGAAGGCGGACUAG [Mat - Exclusion 5 - JL mod - D66] (puzzle: Exclusion 5)”, the “apparent KD of MS2 coat protein” value under setting [1] came to 48.6 nM, the “apparent KD of MS2 coat protein” value under setting [2] turned out to be 42.4 nM and the “apparent KD of MS2 coat protein” value under setting [3] was 35.8 nM.
For the sequence “CUGGUGUGAGGAUAUCAGGACACGUACGCGGGCAUGUCAAAUGAGAAGGCACAUGAGGAUCACCCAUGUGGGAC [Geve] (puzzle: Exclusion 4)”, under setting [2], the “apparent KD of MS2 coat protein” value stood at 26 nM.
As to “CUGUGCACGCUGCGAUCCUACAUGAGGAUCACCCAUGUGGUCUGGUGGCGUGGGUCACCGGACUUGGCUCGUCUUGC [salish99_S_TOV1_R5_071] (Eterna round: R97, puzzle: Sensor, turn-off variant 1)”, the “apparent KD of MS2 coat protein” value (input ligand: FMN 200 uM) was 31.4 nM and the “apparent KD of MS2 coat protein” value (input ligand: none) is 31.6 nM.
For “CUGUGCACGCUGCGGUCCUACAUGAGGAUCACCCAUGUGGUCUGGUGGCGUGGGUCGCCGGACUUGGCUCGUCUUGU [salish99_S_TOV1_R5_024] (Eterna round: R97, puzzle: Sensor, turn-off variant 1)”, in that order: 18.2 nM and 19.3 nM.
For “CUGUUUUUCGCAGGAUAUGCUCCUCCAUUAUUUGCAGAAGGGCGUUGAACAUGAGGAUCACCCAUGUAUGGAAAUGACUAUUGC [JR_ExcNG1_Sub068] (Eterna round: R96, puzzle: Exclusion NG 1)”, the “apparent KD of MS2 coat protein” value is, setting by setting: (input ligand: FMN 200 uM) 22.1 nM; under setting [4], 14.9 nM; (input ligand: none) 18.2 nM.
On to “CUUAAGGCAGGAUAUGCUGUUUGUGACAUGAGGAUCACCCAUGUGAUGCAGUUUGGGUGUGCAGAAGGGCCUGAGU [JR_E5_Sub032] (puzzle: Exclusion 5)”, for which the “apparent KD of MS2 coat protein” value stood at 96.4 nM under setting [1], 71.5 nM under setting [2] and 131 nM under setting [3].
